Measured values taken from patent publication US20060239990A1, “Protein Arginine N-Methyltransferase 2 (PRMT-2)” (priority 2003, published 2006).

B1: PRMT2-A: alternatively spliced form containing the first 218 amino acids of PRMT-2, SEQ ID NO:3 (protein)
chain: MATSGDCPRSESQGEEPAECSEAGLLQEGVQPEEFVAIADYAATDETQLSFLRGEKILILRQTTADWWWGERAGCCGYIPANHVGKHVDEYDPEDTWQDEEYFGSYGTLKLHLEMLADQPRTTKYHSVILQNKESLTDKVILDVGCGTGIISLFCAHYARPRAVYAVEASEMAQHTGQLVLQNGFADIITVYQQKVEDVVLPEKVDVLVSEWMGTCLL
modifications: A synthetic PRMT-2-A mutant polypeptide
B2: PRMT2-N: generated by introducing a stop codon after amino acid 95 of PRMT-2, SEQ ID NO:4 (protein)
chain: MATSGDCPRSESQGEEPAECSEAGLLQEGVQPEEFVAIADYAATDETQLSFLRGEKILILRQTTADWWWGERAGCCGYIPANHVGKHVDEYDPED
modifications: A synthetic PRMT-2-N polypeptide

Columns and labels:
[1] = tested on: IκB-α; test: Co-immunoprecipitation with endogenous IκB-α in 293 cells; format: binding, human; conditions: HA-tagged constructs in 293 cells
Chain of IκB-α (P25963 whole entry, the tested form may be a part): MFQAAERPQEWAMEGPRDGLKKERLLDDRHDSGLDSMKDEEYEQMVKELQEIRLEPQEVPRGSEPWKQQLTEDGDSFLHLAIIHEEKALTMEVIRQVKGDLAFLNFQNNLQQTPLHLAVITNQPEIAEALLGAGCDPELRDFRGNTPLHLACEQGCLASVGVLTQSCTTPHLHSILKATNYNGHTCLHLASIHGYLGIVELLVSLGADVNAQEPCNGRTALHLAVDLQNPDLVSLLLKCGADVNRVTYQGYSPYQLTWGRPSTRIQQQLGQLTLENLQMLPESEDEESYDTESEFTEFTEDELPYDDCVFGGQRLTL
Excerpt: A polyclonal antibody to recombinant PRMT2 was used to examine the association between endogenous PRMT2 and IκB-α in vivo. […] The domain of IκB-α required for association with PRMT2 was mapped using in vivo immunoprecipitation assays where HA-tagged PRMT2 was coexpressed with truncation mutants of His-tagged IκB-α (FIG. 5B) in 293 cells. The ankyrin domain was both necessary and sufficient for this association (FIG. 5D, lanes 1 and 2). The domain of PRMT2 that interacted with endogenous IκB-α was mapped by immunoprecipitation following expression HA-tagged PRMT2 truncation mutants (FIG. 5C). […] When the ratios of PRMT2 or PRMT2-A binding to IκB-α were compared, both interacted with IκB-α with similar affinity.

[2] = tested on: NF-κB; test: NF-κB luciferase reporter assay in 293T cells; format: cell-based, human; conditions: for NF-κB activity: 1 μg expression construct, 100 ng 5 κB luciferase reporter; for IKK2- and p65-induced NF-κB activity: κB luciferase reporter, 48 hrs
Method: Cell culture, transfection, and reporter gene assays. The E1A-transformed, human kidney cell line, 293, and NIH-3T3 cells were maintained in Dulbecco's Modified Eagle Medium (DMEM) supplemented with 10% fetal calf serum and penicillin-streptomycin at 37° C. in 5% carbon dioxide in tissue culture grade Petri dishes. PRMT-2−/− mouse embryo fibroblasts (MEFs) and wild type MEFs were prepared from day 13.5 embryos and maintained in DMEM supplemented with 10% fetal calf serum. MEFs at passage 4 were used in this experiment. Lipofectamine Plus™ reagent (Boehringer Mannheim) was used to transfect both 293 and NIH-3T3 cells according to directions from the manufacturer. […] TNF-α stimulation of cells was done using recombinant TNF-α (200 U/ml) for 12 hours. […] CAT assays were performed essentially as described in Leung, K. & Nabel, G. J. Nature 333, 776-778 (1988). To analyze the κB-reporter activity in MEFs, cells were transfected with the reporter (2×kB-Luc) and PRL-TK vector (Promega) using FuGENE6 transfection reagent (Roche). Luciferase activity was analyzed by Dual-Luciferase Reporter Assay System (Promega).
To map the domains responsible for inhibition of HIV transcription, truncation and point mutations were made in PRMT2 (FIG. 1D) and co-transfected with an NF-κB reporter in 293T cells. PRMT2-A represents an alternatively spliced form of PRMT2 found in the expressed sequence tag (EST) database. This isoform contains the first 218 amino acids of PRMT2 and differs from full length PRMT2 by the absence of the less conserved COOH-terminal domain. PRMT2-N was generated by introducing a stop codon after amino acid 95 before the putative Ado-Met domain of PRMT2. To analyze the role of the Ado-Met domain further, another mutant, PRMT2-4A, was prepared in which 141ILDV144 (SEQ ID NO:5) in this region were altered to four consecutive alanines to compare the effects of point mutations in this highly conserved region.
The mechanism and site of action of PRMT2 in the NF-κB signaling pathway was further defined by co-transfection of PRMT2 and its mutants with different regulators in this pathway with an NF-κB reporter in 293T cells (FIG. 2D).

[3] = tested on: HIV-1, HIV-2, HTLV-1, or HTLV-2 reporter plasmids; test: CAT reporter assay with viral reporter plasmids in 293 cells; format: cell-based, human
Method: Cell culture, transfection, and reporter gene assays. The E1A-transformed, human kidney cell line, 293, and NIH-3T3 cells were maintained in Dulbecco's Modified Eagle Medium (DMEM) supplemented with 10% fetal calf serum and penicillin-streptomycin at 37° C. in 5% carbon dioxide in tissue culture grade Petri dishes. PRMT-2−/− mouse embryo fibroblasts (MEFs) and wild type MEFs were prepared from day 13.5 embryos and maintained in DMEM supplemented with 10% fetal calf serum. MEFs at passage 4 were used in this experiment. Lipofectamine Plus™ reagent (Boehringer Mannheim) was used to transfect both 293 and NIH-3T3 cells according to directions from the manufacturer. […] TNF-α stimulation of cells was done using recombinant TNF-α (200 U/ml) for 12 hours. Transfected cells were harvested at 36 hours, and CAT activity was assayed on 10 to 100 μg of protein from whole cell extracts. CAT assays were performed essentially as described in Leung, K. & Nabel, G. J. Nature 333, 776-778 (1988). To analyze the κB-reporter activity in MEFs, cells were transfected with the reporter (2×kB-Luc) and PRL-TK vector (Promega) using FuGENE6 transfection reagent (Roche). Luciferase activity was analyzed by Dual-Luciferase Reporter Assay System (Promega). […]

[4] = tested on: p50/p65 complex; test: NF-κB DNA binding assay (EMSA); format: biochemical, human; conditions: 293 cells cotransfected with p50 and p65 expression vectors
Method: DNA binding assay. Electrophoretic mobility shift assays (EMSAs) were conducted on 10 μg of nuclear extract protein from 293 cells transiently transfected with pRSV p50/p65 expression constructs and pVR1012 PRMT-2-A/PRMT-2-N expression constructs. A modified Dignam procedure (Dignam et al. Nucleic Acids Res. 11, 1475-1489 (1983)) was used to prepare nuclear extracts from 293 cells. Perkins, N. D. et al. Science 275, 523-527 (1997). NF-KB DNA binding was assayed using a double-stranded 32P-labeled κB probe (Geneka Biotechnology). DNA binding assays were performed as described previously. Perkins et al. Science 275, 523-527 (1997). Supershifting was done using NF-κB p65 (C-20) and NF-κB p50 (H-119) (Santa Cruz). GST-PRMT-2-A fusion proteins were expressed in BL21 (DE3) cells and extracts were prepared as described previously. Smith, D. B. & Johnson, K. S. Gene 67, 31-40 (1988).

| Molecule | association with endogenous IκB-α [1] | NF-κB activity [2] | IKK2- and p65-induced NF-κB activity [2] | expression from HIV-2 or HTLV reporter plasmids [3] | HIV-1 CAT expression ([3]; HIV-1 reporter plasmid) | NF-κB DNA binding in nuclear extracts of transfected cells [4] |
| --- | --- | --- | --- | --- | --- | --- |
| B1 | interacted | inhibited NF-κB activity | inhibited both IKK2- and p65-induced NF-κB activity | No significant reduction | substantially inhibited | – |
| B2 | did not associate | did not | unable to block this effect | – | – | did not affect NF-κB DNA binding |
